Data from patent publication US20180271995A1, “A PROTEIN CONJUGATE COMPRISING MULTIPLE PHYSIOLOGICALLY ACTIVE POLYPEPTIDES AND AN IMMUNOGLOBULIN FC REGION” (HANMI PHARM. CO., LTD., priority 2015, published 2018).
Values joined by “and” are separate entries in the source; they are usually repeats but may differ in a detail not shown here. Equal entries are not always repeated.

What was measured:
[1] = molecular target: human insulin receptor β (human) (UniProt P06213); assay: cell-based or functional assay
[2] = molecular target: human GLP-1 receptor (human) (UniProt P43220); assay: cell-based or functional assay
[3] = test system: mouse-derived 3T3-L1 cell line differentiated into adipocytes; assay: Glucose uptake test in 3T3-L1 cells differentiated into adipocytes (GOPOD residual glucose); format: cell-based; settings: 3T3-L1 adipocytes, 24 hours; read-out: Glucose uptake (Insulin) EC50
Method: First, for analyzing the titer of insulin, a glucose uptake (or lipid synthesis ability) test was conducted using the mouse-derived 3T3-L1 cell line differentiated into adipocytes. […] The 3T3-L1 cell line was suspended in the medium for differentiation (DMEM containing 10% FBS), inoculated into a 48-well plate to a concentration of 5×10^4 cells/well, and cultured at 37° C. for 48 hours. […] The mixtures was added to each well in an amount of 250 μL/well after removing the existing medium.
For the glucose uptake test, the cells terminally differentiated into adipocytes were washed once with serum-free DMEM medium and serum-free DMEM medium was added into each well in an amount of 250 μL to induce serum depletion for 4 hours. […] Each of the thus-prepared samples was added to the cells in an amount of 250 μL, respectively, and cultured in a 5% CO2 incubator at 37° C. for 24 hours. For the measurement of the residual amount of glucose in the medium upon completion of cultivation, 200 μL of the medium was collected, diluted 5-fold with D-PBS, respectively, and subjected to GOPOD analysis (GOPOD Assay Kit, Megazyme, Cat. No. K-GLUC). The residual glucose concentration in the medium was calculated based on the absorbance of the standard glucose solution, and EC50 values for each of the samples with respect to glucose uptake ability was calculated and the result is shown in Table 9 below.

Row | IR-β phosphorylation EC50 [1] [nM] | cAMP assay EC50 [2] [nM] | Substance | EC50 [3]
1 | > 1000 | > 100 | Immunoglobulin Fc | 
2 |  |  | human insulin | 9 nM and 11 nM
